Laboratory results reported in patent US20180064809A1 (University of Texas, published 2018).

T1: Human DC-HIL (human, UniProt Q14956 23-572)
T1 sequence (looked up): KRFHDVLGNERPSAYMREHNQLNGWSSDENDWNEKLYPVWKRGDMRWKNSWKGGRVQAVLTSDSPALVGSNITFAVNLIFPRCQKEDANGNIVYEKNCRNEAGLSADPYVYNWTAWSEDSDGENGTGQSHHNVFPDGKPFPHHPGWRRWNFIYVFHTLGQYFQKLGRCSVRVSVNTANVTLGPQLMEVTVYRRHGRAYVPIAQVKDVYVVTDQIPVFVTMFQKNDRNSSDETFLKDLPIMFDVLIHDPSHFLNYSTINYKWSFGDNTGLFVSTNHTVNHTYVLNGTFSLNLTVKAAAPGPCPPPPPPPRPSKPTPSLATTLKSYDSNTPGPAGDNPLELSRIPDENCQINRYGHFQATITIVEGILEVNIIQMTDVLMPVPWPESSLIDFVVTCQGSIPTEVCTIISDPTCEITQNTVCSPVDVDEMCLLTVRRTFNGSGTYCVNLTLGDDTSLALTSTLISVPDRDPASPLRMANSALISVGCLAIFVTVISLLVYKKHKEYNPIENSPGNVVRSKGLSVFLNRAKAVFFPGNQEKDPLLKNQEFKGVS

B1: 3D5 mouse anti-human DC-HIL mAb (antibody, IgG1, V domains shown)
VH: QVQLQQSGAELVKPGTSVKLSCKASGYTFTNYYMYWVKQRPGQGLEWIGEINTRNGGNRFNEKFKNKAILTVDKSSNTAYIQVSSLTSEDSAVYYCTTGFAYWGQGTLVTVSA
VL: QIVLTQSPAIMSASLGEEITLTCSASSSISYMHWYQQKSGTSPKLLIYTTSTLSSGVPSRFSGSGSGTFYSLTISSVEAEDAADYYCHQSSSYPYTFGGGTKLEIKR

How the values were obtained:
[1] = target: syndecan-4 (SD-4) on mouse T cells (mouse) (UniProt O35988); test: cell-based or functional assay
Human DC-HIL = target: T1, Human DC-HIL; test: cell-based or functional assay

Chain of syndecan-4 (SD-4) on mouse T cells (mouse) (O35988 24-198): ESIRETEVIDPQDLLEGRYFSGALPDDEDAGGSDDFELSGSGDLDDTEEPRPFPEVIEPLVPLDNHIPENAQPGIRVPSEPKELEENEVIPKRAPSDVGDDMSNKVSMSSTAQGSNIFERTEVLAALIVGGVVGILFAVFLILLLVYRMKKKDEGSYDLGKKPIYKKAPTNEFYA

Row | Molecule | restoration of pmel-1 T cell activation suppressed by melanoma-MDSC [1] | T cell IFN-γ response against control IgG-treated cultures, kidney cancer (Human DC-HIL)
1 | DC-HIL-Fc fusion protein (from UniProt Q99P91 23-502) | < 90% | 
2 | B1 |  | 20 fold greater than control IgG-treated cultures
